Data as given in patent US20100196266A1.

Assays:
[1] = target: canine CD20 on dog lymphocytes and lymphoma cells (dog) (UniProt Q3C2E2); experiment: flow cytometry, canine lymphoma aspirate 150836; none 3.9
[2] = target: human CD20 on cells (human) (UniProt P11836); experiment: flow cytometry, REH (ALL) cells; no mAb 3.9
[3] = target: human CD20 on cells (human) (UniProt P11836); experiment: flow cytometry, Kasumi-1 (AML) cells; no mAb 18.2
[4] = target: human CD20 on cells (human) (UniProt P11836); experiment: indirect flow cytometry, Namalwa cells, FITC-GAM; none 2.91
[5] = target: human CD20 on cells (human) (UniProt P11836); experiment: flow cytometry, Granta-519 (MCL) cells; no mAb 15.3
[6] = target: human CD20 on cells (human) (UniProt P11836); experiment: flow cytometry, MN60 (ALL) cells; no mAb 8.1
[7] = target: human CD20 on cells (human) (UniProt P11836); experiment: flow cytometry, Jeko-1 (MCL) cells; no mAb 14.3
[8] = target: canine CD20 on dog lymphocytes and lymphoma cells (dog) (UniProt Q3C2E2); experiment: flow cytometry, canine lymphoma aspirate 150836; none 3.4
[9] = target: human CD20 on cells (human) (UniProt P11836); experiment: flow cytometry, WAC (CLL) cells; no mAb 15.8
[10] = target: human CD20 on cells (human) (UniProt P11836); experiment: flow cytometry, HC-1 (hairy cell leukemia) cells; no mAb 4.8
[11] = target: human CD20 on cells (human) (UniProt P11836); experiment: flow cytometry, RS4;11 (ALL) cells; no mAb 6.4
[12] = target: human CD20 on cells (human) (UniProt P11836); experiment: flow cytometry, K562 (CML) cells; no mAb 3.2
[13] = target: human CD20 on cells (human) (UniProt P11836); experiment: flow cytometry, MEC-1 (CLL) cells; no mAb 4.7
[14] = target: human CD20 on cells (human) (UniProt P11836); experiment: flow cytometry, 697 (ALL) cells; no mAb 4.9
[15] = target: canine CD20 on dog lymphocytes and lymphoma cells (dog) (UniProt Q3C2E2); experiment: flow cytometry, dog lymphoma aspirate; none 3.37
[16] = target: human CD20 on cells (human) (UniProt P11836); experiment: flow cytometry, Kasumi-3 (AML) cells; no mAb 9.6
[17] = target: canine CD20 on dog lymphocytes and lymphoma cells (dog) (UniProt Q3C2E2); experiment: flow cytometry, dog lymphoma aspirate; none 3.85
[18] = target: human CD20 on cells (human) (UniProt P11836); experiment: flow cytometry, GDM-1 (AML) cells; no mAb 16.8
[19] = target: human leukocyte antigen-DR (HLA-DR) on human lymphoma and leukemia cell lines and human lymphocytes (human); experiment: flow cytometry, RS4;11 (ALL) cells; no mAb 6.4; isotype control
[20] = target: human leukocyte antigen-DR (HLA-DR) on human lymphoma and leukemia cell lines and human lymphocytes (human); experiment: flow cytometry, K562 (CML) cells; no mAb 3.2; isotype control
[21] = target: human leukocyte antigen-DR (HLA-DR) on human lymphoma and leukemia cell lines and human lymphocytes (human); experiment: flow cytometry, Kasumi-1 (AML) cells; no mAb 18.2; isotype control
[22] = target: human leukocyte antigen-DR (HLA-DR) on human lymphoma and leukemia cell lines and human lymphocytes (human); experiment: flow cytometry, GDM-1 (AML) cells; no mAb 16.8; isotype control
[23] = target: human leukocyte antigen-DR (HLA-DR) on human lymphoma and leukemia cell lines and human lymphocytes (human); experiment: flow cytometry, MN60 (ALL) cells; no mAb 8.1; isotype control
[24] = target: human leukocyte antigen-DR (HLA-DR) on human lymphoma and leukemia cell lines and human lymphocytes (human); experiment: flow cytometry, 697 (ALL) cells; no mAb 4.9; isotype control
[25] = target: human leukocyte antigen-DR (HLA-DR) on human lymphoma and leukemia cell lines and human lymphocytes (human); experiment: flow cytometry, Jeko-1 (MCL) cells; no mAb 14.3; isotype control
[26] = target: human leukocyte antigen-DR (HLA-DR) on human lymphoma and leukemia cell lines and human lymphocytes (human); experiment: flow cytometry, REH (ALL) cells; no mAb 3.9; isotype control
[27] = target: antigen recognised by L243 on canine lymphocytes and canine lymphoma cells (HLA-DR of the dog) (dog); experiment: flow cytometry, dog lymphoma aspirate; none 3.37; control antibody
[28] = target: antigen recognised by L243 on canine lymphocytes and canine lymphoma cells (HLA-DR of the dog) (dog); experiment: flow cytometry, canine lymphoma aspirate 150836; none 3.9; control antibody
[29] = target: human leukocyte antigen-DR (HLA-DR) on human lymphoma and leukemia cell lines and human lymphocytes (human); experiment: flow cytometry, Kasumi-3 (AML) cells; no mAb 9.6; isotype control
[30] = target: human leukocyte antigen-DR (HLA-DR) on human lymphoma and leukemia cell lines and human lymphocytes (human); experiment: flow cytometry, HC-1 (hairy cell leukemia) cells; no mAb 4.8; isotype control
[31] = target: antigen recognised by L243 on canine lymphocytes and canine lymphoma cells (HLA-DR of the dog) (dog); experiment: flow cytometry, dog lymphoma aspirate; none 3.85; control antibody
[32] = target: human leukocyte antigen-DR (HLA-DR) on human lymphoma and leukemia cell lines and human lymphocytes (human); experiment: flow cytometry, MEC-1 (CLL) cells; no mAb 4.7; isotype control
[33] = target: human leukocyte antigen-DR (HLA-DR) on human lymphoma and leukemia cell lines and human lymphocytes (human); experiment: indirect flow cytometry, Namalwa cells, FITC-GAM; none 2.91; control antibody
[34] = target: antigen recognised by L243 on canine lymphocytes and canine lymphoma cells (HLA-DR of the dog) (dog); experiment: flow cytometry, canine lymphoma aspirate 150836; none 3.4; control antibody
[35] = target: human leukocyte antigen-DR (HLA-DR) on human lymphoma and leukemia cell lines and human lymphocytes (human); experiment: flow cytometry, WAC (CLL) cells; no mAb 15.8; isotype control
[36] = target: human leukocyte antigen-DR (HLA-DR) on human lymphoma and leukemia cell lines and human lymphocytes (human); experiment: flow cytometry, Granta-519 (MCL) cells; no mAb 15.3; isotype control
[37] = target: canine CD22 on dog lymphocytes and lymphoma cells (dog); experiment: flow cytometry, dog lymphoma aspirate; none 3.24
[38] = target: canine CD22 on dog lymphocytes and lymphoma cells (dog); experiment: flow cytometry, canine lymphoma aspirate 150836; none 4.5
[39] = target: canine CD22 on dog lymphocytes and lymphoma cells (dog); experiment: flow cytometry, dog lymphoma aspirate; none 4.48
[40] = target: canine CD22 on dog lymphocytes and lymphoma cells (dog); experiment: flow cytometry, canine lymphoma aspirate 150836; none 3.2
[41] = target: human leukocyte antigen-DR (HLA-DR) on human lymphoma and leukemia cell lines and human lymphocytes (human); experiment: indirect flow cytometry, Namalwa cells, FITC-GAH; none 2.52; irrelevant antibody
[42] = target: canine CD22 on dog lymphocytes and lymphoma cells (dog); experiment: flow cytometry, canine lymphoma aspirate 150836; none 3.9
[43] = target: canine CD22 on dog lymphocytes and lymphoma cells (dog); experiment: flow cytometry, canine lymphoma aspirate 150836; none 3.4
[44] = target: canine CD22 on dog lymphocytes and lymphoma cells (dog); experiment: flow cytometry, dog lymphoma aspirate; none 3.37
[45] = target: canine CD22 on dog lymphocytes and lymphoma cells (dog); experiment: flow cytometry, dog lymphoma aspirate; none 3.85
[46] = target: human leukocyte antigen-DR (HLA-DR) on human lymphoma and leukemia cell lines and human lymphocytes (human); experiment: indirect flow cytometry, Namalwa cells, FITC-GAM; none 2.91; irrelevant antibody

Chain of canine CD20 on dog lymphocytes and lymphoma cells (dog) (Q3C2E2 whole entry): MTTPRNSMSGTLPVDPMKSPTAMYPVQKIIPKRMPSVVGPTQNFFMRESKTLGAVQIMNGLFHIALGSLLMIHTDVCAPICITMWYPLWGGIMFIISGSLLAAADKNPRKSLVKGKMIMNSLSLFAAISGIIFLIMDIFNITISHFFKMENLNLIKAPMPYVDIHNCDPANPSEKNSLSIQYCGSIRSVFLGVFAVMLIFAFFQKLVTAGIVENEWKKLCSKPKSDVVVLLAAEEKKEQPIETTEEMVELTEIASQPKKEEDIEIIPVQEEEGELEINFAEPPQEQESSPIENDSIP
Chain of human CD20 on cells (human) (P11836 whole entry): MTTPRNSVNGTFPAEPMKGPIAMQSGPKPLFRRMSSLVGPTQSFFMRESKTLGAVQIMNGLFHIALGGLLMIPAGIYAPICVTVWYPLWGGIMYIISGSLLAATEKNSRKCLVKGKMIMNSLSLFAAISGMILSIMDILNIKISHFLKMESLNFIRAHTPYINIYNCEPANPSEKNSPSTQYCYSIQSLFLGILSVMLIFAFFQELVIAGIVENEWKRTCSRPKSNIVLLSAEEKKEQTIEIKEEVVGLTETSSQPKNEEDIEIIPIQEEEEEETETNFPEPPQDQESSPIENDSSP

2B8 (murine anti-CD20 mAb) (antibody) showed a % Positive [1] of 2.6%, a mean FL [2] of 23.5 and a mean FL [3] of 14.5. It also gave a GEO MEAN Fluorescence [4] of 6.16, a mean FL [5] of 677 and a mean FL [6] of 162. For the same substance, the mean FL [7] was 455, the mean FL [8] was 3.1 and the mean FL [9] was 275. The mean FL [10] was 42.2, the mean FL [11] was 11.5 and the mean FL [12] was 4.3. The mean FL [13] was 175, the mean FL [14] was 6.9 and the mean FL [15] was 3.11. The mean FL [16] was 11, the % Positive [17] was 2.61% and the mean FL [18] was 15.6.

“Ag8 (P3x63 Ag8, murine myeloma derived mAb) (antibody)” gave a mean FL [19] of 8.6, a mean FL [20] of 4.1 and a mean FL [21] of 17. For the same substance, the mean FL [22] was 20.1, the mean FL [23] was 10.5 and the mean FL [24] was 5.6. The mean FL [25] was 17.4, the mean FL [26] was 3.9 and the mean FL [27] was 3.04. The % Positive [28] was 2.8%, the mean FL [29] was 15.7 and the mean FL [30] was 3.5. For the same substance, the % Positive [31] was 2.81%, the mean FL [32] was 6 and the GEO MEAN Fluorescence [33] was 3.64. It also gave a mean FL [34] of 3, a mean FL [35] of 14.4 and a mean FL [36] of 16.9.

“epratuzumab (hLL2, humanized anti-CD22 mAb) (antibody)” showed a mean FL [37] of 3.37, a % Positive [38] of 4.9% and a % Positive [39] of 4.85%. The mean FL [40] was 3.4.

With hRS7 (humanized anti-EGP-1) (antibody) the GEO MEAN Fluorescence [41] was 2.47.

Work on murine LL2 (anti-human CD22) (antibody) yielded a % Positive [42] of 5.1%, a mean FL [43] of 3.7 and a mean FL [44] of 3.73. The % Positive [45] was 5.05%.

For murine RS7 (antibody), the GEO MEAN Fluorescence [46] was 3.39.
